One may read the Kd as the constant that tells how readily two partners part at equilibrium. Read a low Kd as higher affinity. As usually defined, the stoichiometry N is a count of units in the complex or per binding partner.

Here are results for six substances from PMC2655680.

One experiment deals with PNK-FHA (FHA domain of human polynucleotide kinase 3'-phosphatase, amino acids 1-109) (human) (UniProt Q96T60). Description: ITC. (In general: Isothermal titration calorimetry measures the heat released or taken up as one component is titrated into another.)
“XRCC1 peptide YAGSpTDENpTDSE, phosphorylated on Thr519 and Thr523” had a Kd of 0.7 µM.

The target is the same in a further experiment. In words: ITC. The source holds these as a separate data set.
On to “XRCC1 peptide YAGSpTDENpTDSE, phosphorylated on Thr519 and Thr523”, for which the dissociation constant (Kd) turned out to be 0.76 µM and the stoichiometry N worked out at 0.51.

In turn, “XRCC1 peptide YAGSpTDENTDSE, phosphorylated on Thr519” registered a Kd of 10.6 µM. That is a double-digit micromolar value.

“XRCC1 peptide YAGSTDENpTDSE, phosphorylated on Thr523” returned a Kd of 13.5 µM.

In turn, “XRCC1 peptide YAGpSpTDENTDSE, phosphorylated on Ser518 and Thr519” had a Kd of 1.23 µM and a stoichiometry N of 0.51.

The substance “XRCC1 peptide YAGpSpTDENpTDSE, phosphorylated on Ser518, Thr519 and Thr523” returned a stoichiometry N of 0.46.

Consider “XRCC1 peptide YAGpSTDENpTDSE, phosphorylated on Ser518 and Thr523”, for which the equilibrium dissociation constant (Kd) was determined as 24.2 µM.
